# Measured values published in a protein production outcome set (Wang et al. 2014).
# Experiment: label from the status in PepcDB records
row,Sequence,protein production
1,MAYVSMGEAHRRITEYLNRFCDAVSYQDSSTLCRLLSFSSNSPPLLSLADALNVFQDSSSLIRQSDRFSEYGEILAHVFRSLQSYRVGNLVEAYLAFDKFANAFVQEFRNWESAWALEALYVVCYEIRVLAEKADKDLTSNGKSPEKLKAAGSLLMKVFGVLAGKGPKRVGALYVTCQLFKTYFKLGTVNLCRSVIRSIETARIFDFEEFPRRDKVTYMYYTGRLEVFNENFPAADTKLSYALQNCNPKRERNIRMILKYLVPVKLSLGIIPKDELLRNYNLHEYTKIVQALRKGDLRLLRHALQEHEDRFLRSGVYLVLEKLELQVYQRLMKKIYINQKLSDPARAHQLKLEGIAKALRWLDMDMDLDEVECIMTILIYKNLVKGYLAHKSKVVVLSKQDPFPKLNGKPVSS,failed
2,MCEGRRAAFQAVDNCSSGNALTSKCGEKEAGVAGDAATSPKGLTWDPAQCFYSPACNAENITSKNRSPALLSRPHAQPGESERLITVLSNRDRKASPGAAGDSGLGGASPSGRGRDGTRGWGENWLPPPAAPQATSACSGAGSGAVGAARPCSSRELAVVGGGGDASGGCVGCRAGDRTAAPSSRCPEPTWSNCSEATAPAHTGEEAAVAAVAAAPAMLCYVTRPDAVLMEVEVEAKANGEDCLNQVCRRLGIIEVDYFGLQFTGSKGESLWLNLRNRISQQMDGLAPYRLKLRVKFFVEPHLILQEQTRHIFFLHIKESLLAGHLQCSPEQAVELSALLAQTKFGDYNQNTAQYSYEDLCEKELSSSTLNSIVGKHKELEGISQASAEYQVLQIVSAMENYGIEWHAVRDSEGQKLLIGVGPEGISICKEDFSPINRIAYPVVQMATQSGKNVYLTVTKESGNSIVLLFKMISTRAASGLYRAITETHAFYRCDTVTSAVMMQYSRDLKGHLASLFLNENINLGKKYVFDIKRTSKEVYDHARRALYNAGVVDLVSRNDQSPPSSPLKSSDSSMSCSSCEGLSCQQTRVLQEKLRKLKEAMLCMVCCEEEINSTFCPCGHTVCCESCAAQLQSCPVCRSRVEHVQHVYLPTHTSLLNLTVI,failed
3,MCGSERFQFRSGAKPLIRGRPLDSDMESLHPRVRLLWVLSTVIQASVLGVIAYLVDRFAVSLPQTVVVGGWVVLVLLGVAHAIAAHRIWRFDLQDDALFLLRGVVTRTDTSVPYVRVQHVDTTRGPVERAIGLASVVVYTAGTRGADITIPGLRPERATELREQLRDLANESEATDAV,failed
4,MCHQLSKKTKKALDQELKRKTTLKNNLFSRYLLFRYSLALFFFVNLYWTFPLIYKPSVYVILPVSLLILIVLACAEQFKLYSLQEVYLRNTERVFKTQIVVQILLLIINIFPQQLSVAIPFFSNNMAAHVFLAVFQFLGLFICWYNLKRIKQIKNNEDKFYNRFYNHIEKYI,failed
5,MCIGMDIRDFFAQSAGRWFSQRTSHHLAFKQTESGKSQLTIELLSVDDPAVIALCQQYDMDPAWAVCGARVSWDGTMEWDNEKHEGSTVLVPIMDQGSRMEGKLLREMGYAEKAPVAGRFSMGSDGALTLITEYETIYSEERLWFASPNLRLRTSILKRFGGFSMASFCSEIRLGVTQPANSLEHHHHHH,not failed
6,MCLALPAQIDQVLEDNKAIVNLGGITKEISTVLLEQVSEGEYVIIHAGFALTKLDEREANKTLSLFAHMLKDG,not failed
7,MCNETWQSRAEEYIDDSRRLGYALTTTSAYLLSFARFVDQRGHSGALTSDIILDWAQSTDSKKPTTWTKRLINIRRFISHCSRVDGKSEVPRVDVFGRPKGRPTPHIYTELEISELLAAARELPGTLPSATYETLFGLLASTGLRLSEALHLRCSDVDLRSGRLIVRQGKLGKSRLVPLHATVCEVLSRYLGVRQQLPLTSESYFFVSQTGGLLPRRTVEGVFIRLRTKLGWAPRGNWRAPRIHDLRHTFICRRVTQWHKEGADIDNAMLYVSTYVGHVAVTYTYWYLTGIPELMTVVGQRFEAFAESARGAENAE,failed
8,MCPEFQRKAAGAPRMGAMLARCVLTAALALQAAAAARAVEIEIGVASRGVVDGLEFVQFSADERTMATTHWGNVVHLWDLKTLRVRSSVSVANRDFDFDLSPDGRALAVWNEEGKGEIELYDTDNGQPARALPAPRLPQGESRRGRSLVYRDDGTLEFVSHGWIGGHARKAYLLAVPAGQPRAAETPLPALVNSVAFRKSAVMDQGRLLLAGVDGADDELAIMDIASGRMLAREPGFRIASYAADARRAVFVEADGKQRILAFDFSSRSLSTLPRWTGSGKFQPYRFVAGTRFLVLAPDEPDASTRRAAPGIYDLQTRRLHRLPPDADPGSIDVWGATASYVLCNPDHTACQAEVADLAISRKLGTFAVQPSADFRTWISPSGSMVVVGGADDGTMMVWSVKEQRVIGPN,failed
9,MCQMPCQFSWPYTHYFTQTKNKEKILNKLIVFTGGPGAGKTSVIEQLKTQGFICAPETGRHVIQMQVANHGSALPWNDKQAFRDEMTKEEVSNYRSFNVRQGDVFFDRSIVDVYGYSKLEQLPISHELITHCQTLRYHSQVFIFPPWASIFSNDEERKQDFSEAVATYQQMVDAYHKFGYQLIEVPKMSVEDRVAFILGSVIELEHHHHHH,not failed
10,MCQSNQIVSHFLSHRNVTNELAEKISKDHYSYKPAETSMSAEELVKHILTSFHLFANVIKEGNASPFQNKQEETETDLNVLAKTYTEKTVAILEQLTEEQLDREIDLTSAFGRKVTGRALLQLAMEHEIHHKGNLFVYVREMGHTELPFYQQRM,not failed
11,MCRGPLGSYESLTRPSFAFIVISPSATLLTHAPGSQEPHVSRHNRRRSTLHKRATVFGGGTVAVAAVVATVNIASADQVSPTPRTASKADHAVFVQGNELAGNTIHVFRRGDDGKLTAAGKYATGGKGGDQVDAPTDSLASQGSLVYDRRSGRLLALNAGSGTLTSYAVHGQKLTDRQTVPTGGDFPVGIAVSGDLAYVMNAGGAGSVQGFRITTMGLKPLSGSLRTLGLKNEKVPLFSSSPGQAAFTPDGRNLVVTTKSANTVEVFPIGRDGRPAHKPVVNKSAGMVPFAIAFDKTGRMLVAEAAESTVSTYKVRRNGELQVLQKPLPNGQDTLCWLERAGDFFYGGNTGNSTVSGYRMDARGRLALTNEAGIAAAPSAKSQGVIDIAVAADKFVYVQNATSGTVDGFRVGRTGALTKVTTVTDLPAFAESGMEGIAAV,failed
12,MCSNNNTSSGSYGELQLHDESSGSCRKKQKKDKVRRRGPGVAELEKIRLQEEYKPPLSSSPSLPNIDHHHHTLFAPASSVYDLVMTSPNFSFPEKLASTLPVFPISPDATQNRSMGITPVQETGTTTSNPIAIDSPTSIPRHYPRFIPLGLQYEQQQQKLKDLDETMQWRSKKPFYSFIPSGDPSNDDQEQRPCDLFGSAADHGIDLNLKL,failed
13,MCSTNKNLACCKGDNVFDGQINGNESYPQVVNKQLPPKVLEPIIQNKIVEIPKEVYLEKIVEVPQIKTVERIVEQIRPVIKYKNVYKPKIVYVEKVKNVDKIIYQEKIVEVPQIKTVEKIVEVPVYVNRERIITVPRYMVVEKVIPVLKTSKRESIMEVPEVNCPHIDISKEVEDKEEIPINELKENQTISLADEKEIQILNDLTSQKVDSNATINMEGEQDTTVDTITQENFCGTVSCNFLPNYPNFSKIGNPLCKGGPEKEKRFSSISIYKSKDSGFPSIRIAKTPQMFQRNLYCSYA,failed
14,MCTFCSIINRELEGYFVYEDEKFAAILDKYPVSLGHTLVIPKKHFENYLEADEDTLAELAKVVKLVSLGIKDAVKADGLRLLTNIGRSAGQVIFHLHVHIIPTWEGDYPDIFKSFKPRKEQEKEYYELLQKIIRESIENLKRKIGDYKWG,not failed
15,MCVRLENENFKAELSESGAELTSLKSKNTDNEYIWTANSSYWGRHAPILFPIVGKVKDNKYRIADKVYNLSQHGFARDMEFEVEDNASDRAVFKLVWNDETLEKYPYKFELRVIYVLKDSTVDVTYNVKNVDDKDIFFSIGAHPGFNCPVIGKQSENDELQFEDYYIEFEKRETTGVVKLNSSNLLSRNTSPFLYASNILNLSEKLFKQGALILKDLDSTSISLKNDKNTTSVTVSFEGFPYVGLWSKPEGAPFVCIEPWFGHADYEDFNGDFREKEDGLKLEVGKEFECTYSITIGELEHHHHHH,not failed
16,MCYTGDMEDVKHPRLTRRGRIYWFRAKVPADLRSHYAPKTEIIYSLKTSDPREALVRVRIASVKADQEFEVARRIPKEEVRTSLSDDEAERLVAIYYQVRLEEDEEIRIGGKQEADLYLGVKAQLEALGIGHANYTNEEAVAEYGLSQREYQKNQETLEFMEPLYREALSTGNTEIIHDELDDILEANSIKLDRTSSQYRKLAFSILKATVKVLDVEKRRNSGEPIDTPPEPPPLFKPAVTAVPANSLRLSEVFERWKVERKPAKRSLMEWDTAIRRFTALYGDKPVESITKAEVVEFKDSLLQQGKAAATVLKQVGAIKSTLQYAVDNGKLSVNPATGVKVAGKRASEVRRLPYDAEDLKAIFSSPVFTCGDRPLAGSGEASFWLPLLALFTGARLNEIGQILVSDVRELDGIHYLDLNTEGEGKSLKNEGSRRKVPLHPEIIRLGFLDYVRKQGESLGSDSRVFDKLEPNSNGVLTANFSKWWGRYARENGIAKGQKVFHSFRHSFKDACRESSLPQDIHDALTGHSPNNVGGRYGQGFTVRRLGEEMAKLSYPGLDLSGLMKP,failed
17,MDADHLQRIFDEAVQAHGEGRLDEAEAGFRAVLEVLPHEGEALFGLGLTLMGLRRFSEAIPPLKAAAAEPGAEPVRFLCLAQGLYMTGAFAEAAETFAAVAHQDGFNDGARLTWARSAAYAALDDTDADSALALYGQIAGPVAEDLDTVAREGFSTLVAFERLAAARKLGQWLEARAPDDAIRAHELRVLTDPQIDRAPPAYVEALFDAFAERFDHQLLDNLEYQTPTLLAEMIGVADRRFTHMLDLGCGTGLAGPPLRARVARLTGVDLSTAMLAKAAERGGYDALVHAEAVAFLRETPDRFDLIVAADVFSYLGDLGDILAAAAGALSDDGLLAFSVEQGETWWRLLPSARYAHGDDYVRAAGAGVGLEVIQHRQTPLRRQADAAIPGGLYVLRKIRAA,failed
18,MDADNTAHLIYLSLLGAALVFWFISHNRASLGKTLQMALAWVFIFVGVIAVVGLWGDIRSTVAGTPRISVSENRVEIPRSPDGHYYATLIIEDKPLRFLVDTGASQVVLSHADAERLGIDTSALNYFGRAYTANGEVRTAPVKLGRVQLGGFTDQGVTAWVNEGEMSESLLGMDYLQRFRSIEIAGGTLVLAR,failed
19,MDALLGPPESSWEGADRSDADLRWARGGREARDRRDQLLPALHALNDRVGWISEGALDYVCRRLTVPPAEAYGVATFYAMFSVRPRPATVLHVCTDLACTAAGASRLCAAVESRLGPESGVKLERSPCLGLCERAPATLVIRAGESARPAQEDTPARPAFEDEAVQAEGGSGGAAPGDGGGTSRSSEAESGGGKGRRGRNTLHATAICAPATPDRAIAAATAPESAPTEPAPEAAVPQAGDPTLTLLHRIGTTDPTSLDDYRAHGGYTALRRAFALGPAAVIREVTDAGLVGRGGAAFPTGRKWQATAAQPDHPHYLVCNADESEPGTFKDRVLMEGDPYALVEAMTIAAYATGAHRGYLYLRGEYPRALARLTHAIEQARTRGLLGDDVLGQGYAFDIEIRRGAGAYICGEETALFNSIEGRRGEPRSKPPFPVEKGLFGKPTVENNVETLVNVLPILTMGAEAYAAIGTPTSTGPKLFCVSGTVARPGVYELPFGATLGELLALAGVRDNLRAVLLGGAAGGFVRPDELDIPLTFEGTREAGTTLGSGVVMAFDDTVPLPRLLLRIAEFFRDESCGQCVPCRVGTVRQEEALHRIADRTGAAAADDIALLREVGRAMRDASICGLGQTAWNAVESAIDRLGAYE,failed
